Target: T1, eIF4E (mouse, endogenous in Pten^L/L prostate tissue) (mouse, UniProt P63073 2-217)
T1 construct: Endogenous protein in mouse prostate tumor tissue, detected with an antibody (SCBT) in a proximity ligation assay; also called eIF4E translation initiation factor; eukaryotic translation initiation factor 4E
Assay: in situ proximity ligation assay on castrate vs intact Pten^L/L mouse prostate tumors; confirmed by m7GTP cap-binding assay
Description: Flash frozen intact and castrate Pten^{L/L} ventral prostates dissected from each animal or from AR+ parental and AR− APIPC tumors were pulverized with mortar and pestle in appropriate volumes of lysis buffer containing 10 mM Tris/HCL pH 7.6, 140 mM KCl, 4 mM MgCl₂, 1 mM DTT, 1 mM EDTA, 1% Nonidet P-40 supplemented with phosphatase and protease inhibitor cocktails (Roche) and lysed for 30 min on ice. Lysates were cleared by centrifugation at 12000 rpm for 25 min at 4° C. Supernatants were collected and assayed for protein concentration using the Protein Assay Dye Reagent (Bio-Rad). 250 μg of protein were incubated rotating with 50 μl of γ-aminophenyl-m7GTP (C10-spacer)-agarose beads (Jena Bioscience) in lysis buffer without Nonidet P-40 at 4° C. overnight. After two washes in lysis buffer containing 0.5% Nonidet P-40 and two washes in PBS, beads were re-suspended in 60 μl of 1×SDS loading buffer and boiled for 5 min. Thirty microliters of boiled lysates were western blotted for eIF4G, eIF4E, and 4EBP1.
To test this hypothesis, proximity ligation assays (PLA) for eIF4E-eIF4G interactions and eIF4E-4EBP1 interactions were optimized (FIG. 2A). […] This was also confirmed by the cap-binding assay (FIG. 11A). […]

T1 sequence (P63073 2-217 limits assumed): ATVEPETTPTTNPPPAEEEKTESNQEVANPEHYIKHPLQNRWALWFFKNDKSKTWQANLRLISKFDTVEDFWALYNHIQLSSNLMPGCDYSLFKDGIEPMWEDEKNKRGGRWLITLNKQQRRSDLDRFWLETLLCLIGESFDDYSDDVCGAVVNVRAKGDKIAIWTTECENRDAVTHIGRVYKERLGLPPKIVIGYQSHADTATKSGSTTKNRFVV

B1: 4EBP1 (mouse, endogenous in Pten^L/L prostate tissue) (other, UniProt Q60876 2-117, looked up)
chain: SAGSSCSQTPSRAIPTRRVALGDGVQLPPGDYSTTPGGTLFSTTPGGTRIIYDRKFLMECRNSPVAKTPPKDLPAIPGVTSPTSDEPPMQASQSQLPSSPEDKRAGGEESQFEMDI
notes: Endogenous protein
- binding result: binds
